Drawing on the supplement of paper PMC12042874, this text covers amyloid nucleation score for 95 substances.

± gives the uncertainty stated by the source.

This data set is described as follows: amyloid nucleation score (Sup35N fusion, yeast selection) (log enrichment); library NNK1; higher = more nucleation; inactive = no reads after selection. The gist of the method:
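Psi-negative yeast expressed Sup35N fused to peptides of 20 random codons. They were induced 24 hours with 100 μM copper sulfate, grown 7 days at 30°C without adenine and uracil, and their plasmid inserts from input and output were Illumina-sequenced. The nucleation score is the DiMSum log enrichment of output over input reads, centred on the mode score of non-aggregating sequences. Sequences with under 100 input reads were excluded.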
With YKSIWTRLGSGRSRVGLSRL, the amyloid nucleation score is -0.38 ± 1.

For YLCGHLMNTLYAILNVRRAL, the amyloid nucleation score worked out at 0.888 ± 0.9.

YLDGVECTN came in with an amyloid nucleation score of -0.366 ± 0.63.

YLDGVIWFLK gave an amyloid nucleation score of -0.591 ± 0.31.

Substance YLFKSISCNSGRTRNQPKGQ displayed an amyloid nucleation score of -0.195 ± 1.4.

For YLILYPRASFKYAIILWSCF, the amyloid nucleation score was -0.749 ± 0.42.

Substance YLIVVLCRRCLMGSGYNRIG gave an amyloid nucleation score of -0.368 ± 0.97.

In turn, YLLRVCAAMMFSKLCNG came in with an amyloid nucleation score of 6.028 ± 0.049.

YLMLCTEIEPKRAGGGMSER: the amyloid nucleation score entry is “inactive”.

In turn, YLNERE returned an amyloid nucleation score of -1.16 ± 1.

YLQFVRQRVCWLRLRPMMKA came in with an amyloid nucleation score of -0.183 ± 0.56.

In turn, YLSYDT returned an amyloid nucleation score of -0.411 ± 0.36.

Substance YLTGVYNWGMCKTCFPRDWG registered an amyloid nucleation score of 2.65 ± 0.096.

As to YMGPFVPFSRTTAYNVSTFK, the amyloid nucleation score was 0.42 ± 0.79.

In the case of YMLRYVAWCLGPAL, the amyloid nucleation score was 0.459 ± 0.37.

As for YMQGDYM, the amyloid nucleation score result was “inactive”.

YMRSLFCISTQLSRAILVLP returned an amyloid nucleation score of 0.478 ± 1.

In turn, YMTQIMHKARRFNAWPAVMM showed an amyloid nucleation score of 0.087 ± 0.3.

For the substance YMYQIG, the amyloid nucleation score is -0.691 ± 1.7.

Take YNCLYDRPFRMMSQCLNIGM: the amyloid nucleation score was -1.59 ± 1.2.

The substance YNELKFRGYYNRCLECGFVR had an amyloid nucleation score of 0.495 ± 0.91.

The substance YNKVDM registered an amyloid nucleation score of -0.316 ± 0.53.

The substance YNMVFWTKFSLSWLLCLHGK had an amyloid nucleation score of 5.86 ± 0.088.

As to YNNSLWPIRLVRSKQCLSWT, the amyloid nucleation score turned out to be 0.215 ± 0.54.

YNSEGDRLESNESWDWMARR showed an amyloid nucleation score of 0.511 ± 0.57.

Substance YNTCECFSFLTCKWLNKMDG showed an amyloid nucleation score of 2.79 ± 0.16.

In turn, YNVVSSKNNTVRFVLFP came in with an amyloid nucleation score of 4.31 ± 0.12.

YNYDPRFVY gave an amyloid nucleation score of -0.246 ± 0.28.

Consider YPGEGEPKKYLPYNRLCWRS, for which the amyloid nucleation score came out at 1.08 ± 0.69.

In turn, YPGQARNRVLCCGWKFFIDQ had an amyloid nucleation score of 3.39 ± 0.15.

Regarding YPGRWSSYRLEGSTKNARNG, the amyloid nucleation score result was “inactive”.

As for YPLTSHYLLTR, the amyloid nucleation score was determined as 0.038 ± 0.64.

On to YPNHGLLRQ, for which the amyloid nucleation score is 0.166 ± 0.43.

In turn, YPSDLLDIWDDWICWCWELN had an amyloid nucleation score of 0.225 ± 0.53.

In turn, YQETPVNPEPVV returned an amyloid nucleation score of -0.01 ± 0.38.

Substance YQKDWFDMHEYYRPM showed an amyloid nucleation score of 1.42 ± 0.64.

For the substance YQTWRQWLLFACRVSECYDM, the amyloid nucleation score is -0.508 ± 1.1.

For YQYNATFFPSITRTNLETKG, the amyloid nucleation score came out at 0.337 ± 0.49.

YRDDYACFLRPYPARCG showed an amyloid nucleation score of -0.141 ± 0.92.

As for YRFKFGVKWLAPNFLPAFGY, the amyloid nucleation score entry was “inactive”.

As for YRKFENGVSVIRFEVQCTLV, the amyloid nucleation score is 4.88 ± 0.072.

Turning to YRLRGGP, the amyloid nucleation score was -0.25 ± 1.2.

For the substance YRRNIIL, the amyloid nucleation score is -0.368 ± 0.4.

As for YRTNRKEHSYVLLYARRPSQ, the amyloid nucleation score stood at 0.56 ± 0.72.

On to YSFSISVYLLGLSCCCWMGE, for which the amyloid nucleation score came to 6.08 ± 0.064.

With YSGVLFSTAVEYGGRGLVHE, the amyloid nucleation score entry is “inactive”.

The substance YSIVFGWLRYRLDWMCLISL showed an amyloid nucleation score of 0.055 ± 0.26.

For YSLLVHIFMLLWSYDCLTVT, the amyloid nucleation score was -1.54 ± 2.7.

Substance YSLSPTKLGFSERLDSNEVV yielded an amyloid nucleation score of 0.225 ± 0.62.

Turning to YSQYVVTSFTSLREVS, the amyloid nucleation score is -0.332 ± 0.25.

Substance YSRGCTFYAKGELRDNGSYY gave an amyloid nucleation score of -0.168 ± 0.48.

YSSRIVRVSVRRVIHQSLRS came in with an amyloid nucleation score of 1.41 ± 0.52.

The substance YSSVDDGGDQHRGLSKAGHN showed an amyloid nucleation score of -0.525 ± 0.64.

For the substance YSVSWQLFGIDVCTFVTVRS, the amyloid nucleation score is 0.367 ± 0.52.

As to YSWTVAKIFTYFSVQLSIFR, the amyloid nucleation score was -0.396 ± 0.33.

The substance YSYGCCSMLNVVS came in with an amyloid nucleation score of 1.93 ± 0.2.

YTFQIILNSVPWYFCAMLWE returned an amyloid nucleation score of 5.54 ± 0.1.

Substance YTMFLPFRLR had an amyloid nucleation score of 0.376 ± 0.8.

In turn, YTRVLILNENATAIIWSE displayed an amyloid nucleation score of 1.87 ± 0.4.

YTVRLM had an amyloid nucleation score of 0.125 ± 0.61.

Substance YTVSNQLLSRLRGVQHNKLK registered an amyloid nucleation score of -1.11 ± 0.92.

YTVSTRWRGVNIPYVKHAAL returned an amyloid nucleation score of 0.499 ± 0.25.

As for YTVTCYCGSDTWSKMLAKVF, the amyloid nucleation score is -1.16 ± 2.4.

Take YTWQYAYLCQVMTSFYSGSI: the amyloid nucleation score was -0.269 ± 0.47.

In the case of YVADGLKDKQRCSACFDASS, the amyloid nucleation score stood at 4.93 ± 0.063.

Substance YVEKVSFTAIEWWRGQLQSV displayed an amyloid nucleation score of 0.565 ± 0.47.

Substance YVMQSATDVETSNSGIS registered an amyloid nucleation score of 0.525 ± 0.84.

In turn, YVPGSRLRPYLIQSFNNSLY yielded an amyloid nucleation score of 2.81 ± 0.19.

YVPSRSGYIDFAGRNNRYSI gave an amyloid nucleation score of -0.401 ± 0.73.

In turn, YVQLLMVHNAMYRSAGIFSY showed an amyloid nucleation score of 0.572 ± 0.56.

For YVRWMSLAPSVQWH, the amyloid nucleation score was found to be 1.11 ± 0.19.

YVSDFKADTATLSSDLCQLA had an amyloid nucleation score of -0.183 ± 0.73.

As for YVTVEIMGYVTKVVTITLW, the amyloid nucleation score is -0.419 ± 0.44.

For YVYRFNFLNFVW, the amyloid nucleation score was determined as 1.93 ± 0.12.

YWDKNFHYMCVARLFIVRLC: the amyloid nucleation score was determined as 0.091 ± 0.7.

As for YWDYNNFRFFLRKLSFISRL, the amyloid nucleation score stood at 0.822 ± 1.

The substance YWFDYINPLMRSFAHATAIS gave an amyloid nucleation score of 0.74 ± 0.9.

With YWGLQPFMIY, the amyloid nucleation score turned out to be 0.272 ± 0.74.

The substance YWGTS came in with an amyloid nucleation score of 0.971 ± 0.49.

Substance YWTALTFSHY showed an amyloid nucleation score of 0.486 ± 0.82.

For the substance YYFILYGSVNQHRTSIFRAR, the amyloid nucleation score was 5.08 ± 0.059.

For YYHRSNTLLSIYVSKLLTNN, the amyloid nucleation score was -0.183 ± 1.2.

With YYIEVLILCWACQNALSRAS, the amyloid nucleation score is 0.5 ± 0.9.

Substance YYKYKLLLIKLVLGGAGRPV had an amyloid nucleation score of -0.054 ± 0.56.

In the case of YYPGSGFH, the amyloid nucleation score is -0.531 ± 0.65.

Substance YYSGGFIMVVHLWSVELRFR returned an amyloid nucleation score of 0.23 ± 0.9.

YYTVLLRS gave an amyloid nucleation score of -0.453 ± 0.52.

In turn, YYTYDGVGSLICTCRFTRVV gave an amyloid nucleation score of -0.356 ± 0.49.

YYVDV yielded an amyloid nucleation score of -0.034 ± 0.88.

Consider YYVFITIYVVSLVCNLSCYF, for which the amyloid nucleation score is -0.573 ± 0.74.

In the case of YYVGSYTL, the amyloid nucleation score entry was “inactive”.

Regarding YYVLFNAFQLIPLGWGNYS, the amyloid nucleation score result is “inactive”.

YYVVVFVANAVFPQYPDPRN returned an amyloid nucleation score of 7.21 ± 0.055.

On to YYWCAHPSCYPSVY, for which the amyloid nucleation score was found to be 0.878 ± 0.58.

Consider YYYGKVA, for which the amyloid nucleation score was 0.227 ± 0.57.
